Results published in patent US20150344570A1 (published 2015).

T1: FcγRIIb (human, UniProt P31994 43-217)
T1 construct: extracellular domain; Soluble extracellular domain with C-terminal His tag, used as analyte in Biacore; also called FcgRIIb; 2b; not shown: His tag attached to the C terminus
T1 sequence (looked up): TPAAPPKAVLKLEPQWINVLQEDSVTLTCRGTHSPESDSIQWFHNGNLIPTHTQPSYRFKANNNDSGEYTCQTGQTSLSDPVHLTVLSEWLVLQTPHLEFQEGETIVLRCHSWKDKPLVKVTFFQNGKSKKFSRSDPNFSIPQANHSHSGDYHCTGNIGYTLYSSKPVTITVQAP

T2: FcγRIIb extracellular domain with C-terminal His tag (human, UniProt P31994 43-217)
T2 construct: extracellular domain; also called 2b; FcgRIIb; not shown: His tag at the C terminus
T2 sequence (looked up): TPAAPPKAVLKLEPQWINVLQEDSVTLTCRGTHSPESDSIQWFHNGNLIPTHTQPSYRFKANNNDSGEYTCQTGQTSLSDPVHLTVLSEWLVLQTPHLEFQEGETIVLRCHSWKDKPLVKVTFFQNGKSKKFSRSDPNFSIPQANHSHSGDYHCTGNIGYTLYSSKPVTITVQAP


Key:
FcγRIa = target: T3, FcγRIa (human, UniProt P12314 16-292); assay: SPR (Biacore), antibody captured, FcγR as analyte; relative to GpH7-A5/GpH7-B3/GpL16-k0 = 100
T3 construct: extracellular domain; Soluble extracellular domain with C-terminal His tag, used as analyte in Biacore; also called FcgRI; 1a; not shown: His tag attached to the C terminus
T3 sequence (P12314 16-292): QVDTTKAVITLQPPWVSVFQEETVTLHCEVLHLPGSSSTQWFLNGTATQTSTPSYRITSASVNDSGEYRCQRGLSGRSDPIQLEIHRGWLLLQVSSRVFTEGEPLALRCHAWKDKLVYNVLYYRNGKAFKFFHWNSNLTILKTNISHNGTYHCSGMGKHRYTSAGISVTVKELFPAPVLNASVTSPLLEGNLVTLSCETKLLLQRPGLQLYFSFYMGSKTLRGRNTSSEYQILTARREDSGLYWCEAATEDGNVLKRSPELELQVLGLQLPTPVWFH
Description: (§1) The heterodimerized antibodies He Abs in which one of the H chains was introduced with an alteration were assayed for their binding activities to each activating FcγR and inhibitory FcγR according to the method described in Example 4. […] The activating FcγRs in FIGS. 26, 27, 28, and 29 are FcγRIa, FcγRIIa (R), FcγRIIa (H), and FcγRIIIa, respectively.
(§2) Analysis of interaction between objective antibody and the FcγR was carried out using Biacore T100 (GE Healthcare). HBS-EP+ (GE Healthcare) was used as the running buffer, and the measurement temperature was set to 25° C. Chips produced by immobilizing the antigen peptide by the amine coupling method to a Series S Sencor Chip CM5 (GE Healthcare), or alternatively, chips produced by allowing preliminarily biotinylated antigen peptides to interact with and immobilize onto a Series S Sensor Chip SA (certified) (GE Healthcare) were used. Antibodies of interest were captured onto an antigen peptide-immobilized chip, and allowed to interact to each FcγR diluted with running buffer. To regenerate and repeatedly use the chip, the antibodies captured on the chip were washed off by reacting 10 mM glycine-HCl, pH 1.5.

FcγRIIb = target: T1, FcγRIIb; assay: as above
Description: as §1, §2

[1] = target: T4, FcγRIIIa extracellular domain with C-terminal His tag (human, UniProt P08637 17-208); assay: SPR (Biacore), relative to GpH7-A5/GpH7-B3/GpL16-k0 = 100
T4 construct: extracellular domain; also called 3a; FcgRIIIa; not shown: His tag at the C terminus
T4 sequence (P08637 17-208): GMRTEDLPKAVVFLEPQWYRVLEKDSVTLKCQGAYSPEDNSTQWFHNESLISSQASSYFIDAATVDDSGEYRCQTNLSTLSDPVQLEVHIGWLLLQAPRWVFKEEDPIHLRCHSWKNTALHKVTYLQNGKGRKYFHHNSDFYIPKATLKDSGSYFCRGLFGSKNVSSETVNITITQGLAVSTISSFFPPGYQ

[2] = target: T2, FcγRIIb extracellular domain with …; assay: as above

Row | Binder | He/Con_1a (FcγRIa) | He/Con_2b (FcγRIIb) | He/Con_3a [1] | He/Con_2b [2]
1 | GpH7-A5/GpH7-B3 variant A327_01G/GpL16-k0 (antibody, human IgG1, kappa, Heterodimerized anti-glypican-3 IgG1; alteration in the GpH7-B3 chain only; also called He Ab) heavy 1: not shown heavy 2: not shown light: DIVMTQSPLSLPVTPGEPASISCQASESLVHSNRNTYLHWYLQKPGQSPQLLIYKVSNRFSGVPDRFSGSGSGTDFTLKISRVEAEDVGVYYCSQNTHVPPTFGQGTKVEIERTVAAPSVFIFPPSDEQLKSGTASVVCLLNNFYPREAKVQWKVDNALQSGNSQESVTEQDSKDSTYSLSSTLTLSKADYEKHKVYACEVTHQGLSSPVTKSFNRGEC | 99 % of control (=100) | 116 % of control (=100) |  | 
2 | GpH7-A5/GpH7-B3 variant L234_20W/GpL16-k0 (antibody, human IgG1, kappa, Heterodimerized anti-glypican-3 IgG1; alteration in the GpH7-B3 chain only; also called He Ab) heavy 1: not shown heavy 2: not shown light: DIVMTQSPLSLPVTPGEPASISCQASESLVHSNRNTYLHWYLQKPGQSPQLLIYKVSNRFSGVPDRFSGSGSGTDFTLKISRVEAEDVGVYYCSQNTHVPPTFGQGTKVEIERTVAAPSVFIFPPSDEQLKSGTASVVCLLNNFYPREAKVQWKVDNALQSGNSQESVTEQDSKDSTYSLSSTLTLSKADYEKHKVYACEVTHQGLSSPVTKSFNRGEC | 98.6 % of control (=100) | 114 % of control (=100) |  | 
3 | GpH7-A5/GpH7-B3 variant L328_06M/GpL16-k0 (antibody, human IgG1, kappa, Heterodimerized anti-glypican-3 IgG1; alteration in the GpH7-B3 chain only; also called He Ab) heavy 1: not shown heavy 2: not shown light: DIVMTQSPLSLPVTPGEPASISCQASESLVHSNRNTYLHWYLQKPGQSPQLLIYKVSNRFSGVPDRFSGSGSGTDFTLKISRVEAEDVGVYYCSQNTHVPPTFGQGTKVEIERTVAAPSVFIFPPSDEQLKSGTASVVCLLNNFYPREAKVQWKVDNALQSGNSQESVTEQDSKDSTYSLSSTLTLSKADYEKHKVYACEVTHQGLSSPVTKSFNRGEC | 98.7 % of control (=100) | 142 % of control (=100) |  | 
4 | GpH7-A5/GpH7-B3 variant G236_10E/GpL16-k0 (antibody, human IgG1, kappa, Heterodimerized anti-glypican-3 IgG1; alteration in the GpH7-B3 chain only; also called He Ab) heavy 1: not shown heavy 2: not shown light: DIVMTQSPLSLPVTPGEPASISCQASESLVHSNRNTYLHWYLQKPGQSPQLLIYKVSNRFSGVPDRFSGSGSGTDFTLKISRVEAEDVGVYYCSQNTHVPPTFGQGTKVEIERTVAAPSVFIFPPSDEQLKSGTASVVCLLNNFYPREAKVQWKVDNALQSGNSQESVTEQDSKDSTYSLSSTLTLSKADYEKHKVYACEVTHQGLSSPVTKSFNRGEC | 93.7 % of control (=100) | 110 % of control (=100) |  | 
5 | GpH7-A5/GpH7-B3 variant L328_04F/GpL16-k0 (antibody, human IgG1, kappa, Heterodimerized anti-glypican-3 IgG1; alteration in the GpH7-B3 chain only; also called He Ab) heavy 1: not shown heavy 2: not shown light: DIVMTQSPLSLPVTPGEPASISCQASESLVHSNRNTYLHWYLQKPGQSPQLLIYKVSNRFSGVPDRFSGSGSGTDFTLKISRVEAEDVGVYYCSQNTHVPPTFGQGTKVEIERTVAAPSVFIFPPSDEQLKSGTASVVCLLNNFYPREAKVQWKVDNALQSGNSQESVTEQDSKDSTYSLSSTLTLSKADYEKHKVYACEVTHQGLSSPVTKSFNRGEC | 97.9 % of control (=100) | 219 % of control (=100) |  | 

Next, values leading:

Row | He/Con_1a (FcγRIa) | He/Con_2b (FcγRIIb) | He/Con_3a [1] | He/Con_2b [2] | Binder
6 |  |  | 96.3 % (control = 100) | 108 % (control = 100) | GpH7-A5/GpH7-B3 variant Y300_19Q/GpL16-k0 (antibody, human IgG1, kappa, IgG1, anti-glypican-3; also called He Ab) heavy 1: not shown heavy 2: not shown light: DIVMTQSPLSLPVTPGEPASISCQASESLVHSNRNTYLHWYLQKPGQSPQLLIYKVSNRFSGVPDRFSGSGSGTDFTLKISRVEAEDVGVYYCSQNTHVPPTFGQGTKVEIERTVAAPSVFIFPPSDEQLKSGTASVVCLLNNFYPREAKVQWKVDNALQSGNSQESVTEQDSKDSTYSLSSTLTLSKADYEKHKVYACEVTHQGLSSPVTKSFNRGEC
7 | 99 % of control (=100) | 149 % of control (=100) |  |  | GpH7-A5/GpH7-B3 variant L328_13S/GpL16-k0 (antibody, human IgG1, kappa, Heterodimerized anti-glypican-3 IgG1; alteration in the GpH7-B3 chain only; also called He Ab) heavy 1: not shown heavy 2: not shown light: DIVMTQSPLSLPVTPGEPASISCQASESLVHSNRNTYLHWYLQKPGQSPQLLIYKVSNRFSGVPDRFSGSGSGTDFTLKISRVEAEDVGVYYCSQNTHVPPTFGQGTKVEIERTVAAPSVFIFPPSDEQLKSGTASVVCLLNNFYPREAKVQWKVDNALQSGNSQESVTEQDSKDSTYSLSSTLTLSKADYEKHKVYACEVTHQGLSSPVTKSFNRGEC
8 |  |  | 73.5 % (control = 100) | 108 % (control = 100) | GpH7-A5/GpH7-B3 variant S298_08L/GpL16-k0 (antibody, human IgG1, kappa, IgG1, anti-glypican-3; also called He Ab) heavy 1: not shown heavy 2: not shown light: DIVMTQSPLSLPVTPGEPASISCQASESLVHSNRNTYLHWYLQKPGQSPQLLIYKVSNRFSGVPDRFSGSGSGTDFTLKISRVEAEDVGVYYCSQNTHVPPTFGQGTKVEIERTVAAPSVFIFPPSDEQLKSGTASVVCLLNNFYPREAKVQWKVDNALQSGNSQESVTEQDSKDSTYSLSSTLTLSKADYEKHKVYACEVTHQGLSSPVTKSFNRGEC
